Measurements: the supplement of paper PMC10065799, “High-throughput profiling of sequence recognition by tyrosine kinases and SH2 domains using bacterial peptide display” (eLife, 2023)

Columns and labels:
SHP2-C SH2 = assay: SH2 binding enrichment of the phosphorylated peptide, bacterial display (enrichment ratio); higher = better substrate or ligand; peptides without Tyr show the background
Grb2 SH2 = Grb2 SH2 (UniProt P62993); assay: as above
c-Src SH2 = assay: as above
EPHB2 = EPHB2 (UniProt P29323); assay: phosphorylation enrichment, bacterial display (enrichment ratio); higher = better substrate or ligand; peptides without Tyr show the background
Jak2 = Jak2 (UniProt O60674); assay: as above
FGFR1 = FGFR1 (UniProt P11362); assay: as above
AncSZ = assay: as above
c-Src = assay: as above
FGFR3 = FGFR3 (UniProt P22607); assay: as above
Fyn = Fyn (UniProt P06241); assay: as above
Fer (mouse) = assay: as above
Hck = Hck (UniProt P08631); assay: as above
MERTK = MERTK (UniProt Q12866); assay: as above
c-Abl (mouse) = assay: as above
EPHB1 = EPHB1 (UniProt P54762); assay: as above
Fes = Fes (UniProt P07332); assay: as above
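Throughout, for SH2 binding enrichment of the phosphorylated peptide, bacterial display: peptide library displayed on the E. coli surface as eCPX fusions, selected cells deep-sequenced, score is each peptide's frequency after selection divided by its frequency in the input.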
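Throughout, for phosphorylation enrichment, bacterial display: 11-residue human phosphosite peptides and single-mutation variants displayed on the E. coli surface, counted by deep sequencing, each peptide's frequency after selection divided by its frequency in the unselected input library; frequency after pTyr selection over input frequency; kinase dosed for 20-30% of maximal phosphorylation in three min.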

Chain of Fes (P07332 whole entry, looked up, the tested form may be a part): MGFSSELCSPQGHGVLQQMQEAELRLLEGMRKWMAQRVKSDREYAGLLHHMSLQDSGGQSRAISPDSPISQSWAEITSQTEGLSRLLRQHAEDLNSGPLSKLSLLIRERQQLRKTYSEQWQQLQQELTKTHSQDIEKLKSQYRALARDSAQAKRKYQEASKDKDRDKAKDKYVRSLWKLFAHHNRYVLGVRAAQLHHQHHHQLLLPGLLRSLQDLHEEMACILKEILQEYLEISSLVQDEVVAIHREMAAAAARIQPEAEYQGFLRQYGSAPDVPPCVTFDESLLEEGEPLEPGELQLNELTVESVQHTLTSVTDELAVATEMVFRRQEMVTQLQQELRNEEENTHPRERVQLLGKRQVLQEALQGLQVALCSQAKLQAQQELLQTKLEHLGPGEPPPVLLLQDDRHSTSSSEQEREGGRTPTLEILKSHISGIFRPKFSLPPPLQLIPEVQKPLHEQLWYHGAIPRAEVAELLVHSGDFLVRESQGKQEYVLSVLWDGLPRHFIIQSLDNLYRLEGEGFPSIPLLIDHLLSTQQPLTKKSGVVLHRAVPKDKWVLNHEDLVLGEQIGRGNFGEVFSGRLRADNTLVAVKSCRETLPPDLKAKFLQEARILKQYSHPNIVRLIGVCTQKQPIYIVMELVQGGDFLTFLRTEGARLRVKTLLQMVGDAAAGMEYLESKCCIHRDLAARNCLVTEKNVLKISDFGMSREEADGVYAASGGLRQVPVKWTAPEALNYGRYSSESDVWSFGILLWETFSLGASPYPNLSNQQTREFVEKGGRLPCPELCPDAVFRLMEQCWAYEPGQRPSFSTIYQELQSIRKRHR
Chain of Hck (P08631 whole entry, looked up): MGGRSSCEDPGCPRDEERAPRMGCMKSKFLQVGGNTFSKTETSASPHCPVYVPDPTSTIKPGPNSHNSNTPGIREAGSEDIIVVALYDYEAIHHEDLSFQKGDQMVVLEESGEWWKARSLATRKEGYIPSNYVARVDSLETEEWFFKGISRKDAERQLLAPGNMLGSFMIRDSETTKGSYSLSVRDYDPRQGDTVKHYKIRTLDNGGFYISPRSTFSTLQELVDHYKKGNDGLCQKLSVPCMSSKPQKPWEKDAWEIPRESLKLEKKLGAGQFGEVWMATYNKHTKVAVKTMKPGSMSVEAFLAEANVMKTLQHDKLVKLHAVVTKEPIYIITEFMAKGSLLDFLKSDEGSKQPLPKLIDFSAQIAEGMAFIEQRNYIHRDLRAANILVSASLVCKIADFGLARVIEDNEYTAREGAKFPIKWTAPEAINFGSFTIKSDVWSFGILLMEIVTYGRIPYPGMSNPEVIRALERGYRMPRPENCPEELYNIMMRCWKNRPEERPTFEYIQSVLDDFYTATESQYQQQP
Chain of FGFR1 (P11362 whole entry, looked up): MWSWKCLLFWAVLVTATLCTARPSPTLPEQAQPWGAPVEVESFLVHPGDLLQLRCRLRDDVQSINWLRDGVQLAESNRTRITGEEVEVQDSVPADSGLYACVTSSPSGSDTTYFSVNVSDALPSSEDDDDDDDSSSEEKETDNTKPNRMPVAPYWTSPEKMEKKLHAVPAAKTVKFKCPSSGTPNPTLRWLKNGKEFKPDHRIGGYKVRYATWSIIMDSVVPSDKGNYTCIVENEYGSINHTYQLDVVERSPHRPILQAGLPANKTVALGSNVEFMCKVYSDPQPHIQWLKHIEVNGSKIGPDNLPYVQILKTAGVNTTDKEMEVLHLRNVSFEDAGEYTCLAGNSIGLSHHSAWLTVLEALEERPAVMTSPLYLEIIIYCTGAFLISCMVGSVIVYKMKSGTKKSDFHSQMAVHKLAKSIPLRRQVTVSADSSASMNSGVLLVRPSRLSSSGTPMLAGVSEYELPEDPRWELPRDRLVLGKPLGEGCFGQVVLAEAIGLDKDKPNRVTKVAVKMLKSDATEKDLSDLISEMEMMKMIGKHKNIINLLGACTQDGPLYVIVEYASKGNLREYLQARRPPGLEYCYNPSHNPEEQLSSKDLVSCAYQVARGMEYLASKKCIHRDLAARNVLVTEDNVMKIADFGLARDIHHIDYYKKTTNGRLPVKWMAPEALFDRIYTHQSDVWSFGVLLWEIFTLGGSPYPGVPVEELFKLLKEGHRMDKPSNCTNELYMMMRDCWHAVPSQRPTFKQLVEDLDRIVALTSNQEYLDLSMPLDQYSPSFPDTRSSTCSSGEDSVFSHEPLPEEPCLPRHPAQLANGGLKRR
Chain of Fyn (P06241 whole entry, looked up): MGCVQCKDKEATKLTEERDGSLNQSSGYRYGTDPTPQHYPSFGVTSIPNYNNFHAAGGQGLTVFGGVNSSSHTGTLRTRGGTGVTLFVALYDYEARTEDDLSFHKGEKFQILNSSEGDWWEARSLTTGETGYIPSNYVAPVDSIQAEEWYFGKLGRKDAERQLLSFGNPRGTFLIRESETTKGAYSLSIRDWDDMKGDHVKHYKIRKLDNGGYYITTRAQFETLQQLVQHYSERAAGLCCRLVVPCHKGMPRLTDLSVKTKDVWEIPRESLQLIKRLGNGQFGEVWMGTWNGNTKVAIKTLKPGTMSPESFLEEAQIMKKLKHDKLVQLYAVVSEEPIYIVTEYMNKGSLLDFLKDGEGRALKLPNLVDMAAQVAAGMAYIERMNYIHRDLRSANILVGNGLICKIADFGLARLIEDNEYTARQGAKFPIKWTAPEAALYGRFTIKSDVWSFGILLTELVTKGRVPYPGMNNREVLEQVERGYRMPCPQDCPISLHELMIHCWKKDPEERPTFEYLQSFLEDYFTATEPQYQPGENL
Chain of Grb2 SH2 (P62993 whole entry, looked up): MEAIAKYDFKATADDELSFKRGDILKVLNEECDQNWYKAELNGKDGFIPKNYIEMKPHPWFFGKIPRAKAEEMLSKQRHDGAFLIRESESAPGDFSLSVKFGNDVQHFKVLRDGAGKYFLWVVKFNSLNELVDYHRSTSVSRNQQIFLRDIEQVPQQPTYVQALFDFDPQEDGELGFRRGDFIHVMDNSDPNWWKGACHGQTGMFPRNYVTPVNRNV
Chain of FGFR3 (P22607 whole entry, looked up): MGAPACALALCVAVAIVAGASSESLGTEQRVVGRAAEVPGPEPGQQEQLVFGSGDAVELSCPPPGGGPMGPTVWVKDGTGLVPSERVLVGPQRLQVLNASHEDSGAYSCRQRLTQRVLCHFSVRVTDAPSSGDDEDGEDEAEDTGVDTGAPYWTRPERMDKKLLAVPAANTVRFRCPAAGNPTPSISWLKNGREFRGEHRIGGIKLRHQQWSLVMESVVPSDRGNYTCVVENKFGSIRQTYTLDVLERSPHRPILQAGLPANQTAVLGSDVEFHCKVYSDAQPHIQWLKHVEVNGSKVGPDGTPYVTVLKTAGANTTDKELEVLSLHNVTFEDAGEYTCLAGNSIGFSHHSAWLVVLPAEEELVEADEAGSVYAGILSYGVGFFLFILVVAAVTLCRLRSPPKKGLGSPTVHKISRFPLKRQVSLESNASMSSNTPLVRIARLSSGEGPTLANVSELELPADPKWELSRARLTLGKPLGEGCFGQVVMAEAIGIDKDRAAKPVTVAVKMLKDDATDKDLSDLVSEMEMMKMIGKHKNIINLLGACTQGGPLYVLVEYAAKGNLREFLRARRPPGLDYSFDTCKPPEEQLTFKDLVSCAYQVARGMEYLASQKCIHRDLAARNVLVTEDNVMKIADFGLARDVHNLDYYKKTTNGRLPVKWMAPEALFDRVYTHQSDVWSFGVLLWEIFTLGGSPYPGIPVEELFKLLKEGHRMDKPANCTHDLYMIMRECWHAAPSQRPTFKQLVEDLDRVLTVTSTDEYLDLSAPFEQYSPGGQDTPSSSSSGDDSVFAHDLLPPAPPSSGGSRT
Chain of Jak2 (O60674 whole entry, looked up): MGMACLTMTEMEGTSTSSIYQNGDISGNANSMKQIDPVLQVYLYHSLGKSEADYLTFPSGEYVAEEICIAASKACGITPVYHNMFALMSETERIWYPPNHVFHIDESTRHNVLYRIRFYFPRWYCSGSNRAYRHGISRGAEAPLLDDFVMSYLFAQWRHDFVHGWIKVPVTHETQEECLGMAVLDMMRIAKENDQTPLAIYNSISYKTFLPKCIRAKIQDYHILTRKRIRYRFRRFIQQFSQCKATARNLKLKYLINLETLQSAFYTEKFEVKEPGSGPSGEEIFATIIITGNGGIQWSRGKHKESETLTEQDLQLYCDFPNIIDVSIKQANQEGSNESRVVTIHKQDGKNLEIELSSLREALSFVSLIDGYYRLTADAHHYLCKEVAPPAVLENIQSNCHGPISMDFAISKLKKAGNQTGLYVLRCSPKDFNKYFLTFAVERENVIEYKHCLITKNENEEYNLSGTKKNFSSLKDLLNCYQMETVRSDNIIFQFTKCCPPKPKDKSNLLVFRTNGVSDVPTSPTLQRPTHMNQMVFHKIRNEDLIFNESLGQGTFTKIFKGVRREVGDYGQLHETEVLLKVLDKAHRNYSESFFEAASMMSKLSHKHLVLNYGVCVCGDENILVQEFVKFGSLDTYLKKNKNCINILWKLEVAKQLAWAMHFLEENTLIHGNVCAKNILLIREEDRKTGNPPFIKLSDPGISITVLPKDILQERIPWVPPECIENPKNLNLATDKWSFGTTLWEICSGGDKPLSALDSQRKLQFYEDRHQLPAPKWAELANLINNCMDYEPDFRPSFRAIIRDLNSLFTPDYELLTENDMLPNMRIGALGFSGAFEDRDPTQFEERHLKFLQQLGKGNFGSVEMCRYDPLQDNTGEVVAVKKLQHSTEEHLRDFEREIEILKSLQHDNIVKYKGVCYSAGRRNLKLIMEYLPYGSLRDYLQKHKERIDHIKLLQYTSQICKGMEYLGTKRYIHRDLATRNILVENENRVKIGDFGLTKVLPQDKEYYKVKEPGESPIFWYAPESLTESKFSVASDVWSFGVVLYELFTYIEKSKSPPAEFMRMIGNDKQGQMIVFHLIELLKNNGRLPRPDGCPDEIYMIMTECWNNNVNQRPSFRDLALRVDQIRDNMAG

Sequence | SH2 binding enrichment (SHP2-C SH2) | SH2 binding enrichment (Grb2 SH2) | SH2 binding enrichment (c-Src SH2) | phosphorylation enrichment (EPHB2) | phosphorylation enrichment (Jak2) | phosphorylation enrichment (FGFR1) | phosphorylation enrichment (AncSZ) | phosphorylation enrichment (c-Src) | phosphorylation enrichment (FGFR3) | phosphorylation enrichment (Fyn) | phosphorylation enrichment (Fer (mouse)) | phosphorylation enrichment (Hck) | phosphorylation enrichment (MERTK) | phosphorylation enrichment (c-Abl (mouse)) | phosphorylation enrichment (EPHB1) | phosphorylation enrichment (Fes)
AGADGYGYLAP [FOXL2_Y186] | 0.339 | 0.759 | 1.09 | 0.464 | 0.538 | 0.37 | 0.576 | 0.372 | 0.457 | 0.361 | 0.26 | 0.468 | 0.364 | 0.443 | 0.387 | 0.622
ENEGTYVCIAT [ADAMTSL3_Y1365] | 0.6 | 0.74 | 0.395 | 1.16 | 1.1 | 1.29 | 1.46 | 1.62 | 1.45 | 1.44 | 1.3 | 1.08 | 0.662 | 0.852 | 1.73 | 1.38
TLKVGYKEKQR [EPHA3_Y659_T660K] | 1.14 | 0.919 | 1.02 | 0.366 | 0.812 | 0.348 | 0.367 | 0.334 | 0.555 | 0.333 | 0.358 | 0.328 | 0.37 | 0.547 | 0.45 | 0.699
DEFLEHRRIVG [FAM221A_Y20_Y20H_YF] | 0.574 | 0.813 | 0.531 | 0.494 | 0.716 | 0.45 | 0.747 | 0.409 | 0.502 | 0.425 | 0.387 | 0.47 | 0.48 | 0.58 | 0.447 | 0.902
IYLADYRIMEG [ALOX12B_Y318] | 1.1 | 0.982 | 0.719 | 1.07 | 1.03 | 2.63 | 1.14 | 1.16 | 2.46 | 0.738 | 0.48 | 0.812 | 3.75 | 0.978 | 1.26 | 1.1
LARDMDDKEFF [MET_Y1230_Y1230D_YF] | 0.968 | 1.11 | 0.508 | 0.53 | 0.708 | 0.453 | 0.895 | 0.498 | 1.08 | 0.342 | 0.428 | 0.456 | 0.523 | 0.464 | 0.451 | 0.997
RLSVDCGKKSK [TUBA4A_Y161_Y161C] | 0.984 | 0.846 | 0.884 | 0.619 | 1.1 | 0.444 | 0.684 | 0.471 | 0.788 | 0.551 | 0.571 | 0.462 | 0.432 | 0.828 | 1.03 | 0.825
IHETTYNSIKK [ACTA1_Y281_M285K] | 1.63 | 0.673 | 1.05 | 0.403 | 0.532 | 0.467 | 0.449 | 0.442 | 0.482 | 0.391 | 0.35 | 0.69 | 0.369 | 0.455 | 0.382 | 0.689
RMGNLYDIDED [GRIN2A_Y1246] | 0.501 | 0.599 | 1.23 | 0.491 | 1.36 | 0.591 | 1.11 | 1.25 | 0.808 | 2.25 | 0.543 | 1.25 | 0.606 | 1.11 | 0.583 | 1.32
EVLKNYSQQKD [GOLGA4_Y1551_N1552S] | 0.782 | 0.887 | 0.501 | 0.456 | 0.657 | 0.404 | 0.545 | 0.433 | 0.56 | 0.438 | 0.417 | 0.476 | 0.458 | 0.494 | 0.419 | 0.609
RLPSGYGLAFR [DLK1_Y262_YF] | 0.852 | 0.823 | 0.521 | 0.526 | 0.837 | 0.422 | 0.734 | 0.478 | 0.595 | 0.549 | 0.49 | 0.509 | 0.396 | 0.889 | 0.416 | 0.885
HEHKGYNANFC [TGFB2_Y341_P338H] | 0.647 | 0.775 | 0.655 | 0.727 | 0.642 | 0.7 | 0.603 | 0.542 | 0.951 | 0.659 | 0.698 | 0.832 | 0.612 | 0.464 | 0.505 | 0.928
GRTNIYNNKKD [SLC26A3_Y520_K521N] | 0.754 | 1.04 | 0.634 | 0.339 | 0.691 | 0.324 | 0.418 | 0.435 | 0.349 | 0.347 | 0.326 | 0.365 | 0.301 | 0.433 | 0.311 | 0.632
RLFARYFQGDL [PDK3_Y337_YF] | 0.454 | 0.713 | 0.292 | 0.547 | 0.545 | 0.572 | 0.826 | 0.481 | 0.627 | 0.499 | 0.474 | 0.723 | 0.525 | 0.524 | 0.416 | 0.882
LEGKEYRMSGE [KRT3_Y511_E509K] | 1.12 | 0.85 | 0.362 | 0.333 | 0.923 | 0.432 | 0.73 | 0.415 | 0.618 | 0.456 | 0.455 | 0.409 | 0.439 | 0.583 | 0.434 | 0.985
SPGGDYAAMGA [ERBB3_Y1276_G1271S] | 0.487 | 0.749 | 1.03 | 0.901 | 0.708 | 0.705 | 0.7 | 0.445 | 0.609 | 0.484 | 0.456 | 0.455 | 0.476 | 0.622 | 1.52 | 0.861
AIMSFYATLID [RYR1_Y2426_A2428T] | 0.673 | 0.869 | 0.541 | 0.836 | 1.83 | 0.601 | 1.31 | 0.486 | 1.09 | 0.508 | 0.791 | 0.585 | 0.59 | 1.07 | 1.05 | 1.51
